According to paper PMC12507022, “Widespread distribution of BpfA-mediated bisphenol F degradation among members of the Pseudomonadota and Actinomycetota” (The ISME Journal, 2025):

How the values were obtained:
Assay in all cases: HPLC, Michaelis-Menten fit
Details in all cases: 20 mM Tris-HCl pH 8.0, 30 °C, O2 as electron acceptor
[1] = substrate: Oc1ccc(Cc2ccc(O)cc2)cc1; assay type: biochemical, Penicillium simplicissimum
[2] = substrate: COc1cc(CO)ccc1O; assay type: biochemical, Penicillium simplicissimum
[3] = substrate: COCc1ccc(O)cc1; assay type: biochemical, Penicillium simplicissimum
[4] = substrate: CCCc1ccc(O)c(OC)c1; assay type: biochemical, Penicillium simplicissimum
[5] = substrate: Oc1ccc(Cc2ccc(O)cc2)cc1; assay type: biochemical, Rhodococcus jostii
[6] = substrate: COc1cc(CO)ccc1O; assay type: biochemical, Rhodococcus jostii
[7] = substrate: COCc1ccc(O)cc1; assay type: biochemical, Rhodococcus jostii
[8] = substrate: CCCc1ccc(O)c(OC)c1; assay type: biochemical, Rhodococcus jostii

B1: VAO (Penicillium simplicissimum) (protein)
chain: MSKTQEFRPLTLPPKLSLSDFNEFIQDIIRIVGSENVEVISSKDQIVDGSYMKPTHTHDPHHVMDQDYFLASAIVAPRNVADVQSIVGLANKFSFPLWPISIGRNSGYGGAAPRVSGSVVLDMGKNMNRVLEVNVEGAYCVVEPGVTYHDLHNYLEANNLRDKLWLDVPDLGGGSVLGNAVERGVGYTPYGDHWMMHSGMEVVLANGELLRTGMGALPDPKRPETMGLKPEDQPWSKIAHLFPYGFGPYIDGLFSQSNMGIVTKIGIWLMPNPRGYQSYLITLPKDGDLKQAVDIIRPLRLGMALQNVPTIRHILLDAAVLGDKRSYSSRTEPLSDEELDKIAKQLNLGRWNFYGALYGPEPIRRVLWETIKDAFSAIPGVKFYFPEDTPENSVLRVRDKTMQGIPTYDELKWIDWLPNGAHLFFSPIAKVSGEDAMMQYAVTKKRCQEAGLDFIGTFTVGMREMHHIVCIVFNKKDLIQKRKVQWLMRTLIDDCAANGWGEYRTHLAFMDQIMETYNWNNSSFLRFNEVLKNAVDPNGIIAPGKSGVWPSQYSHVTWKL
notes: synthetic gene, expressed and purified like BpfA (E. coli, Ni-NTA); contains flavin
Km [1]: 205.6 ± 18.5 µM | kcat [1]: 0.05 ± 0.001 s⁻¹ | kcat/Km [1]: 0.2 b | Km [2]: 140 ± 12.3 µM | kcat [2]: 6.0 ± 0.2 s⁻¹ | kcat/Km [2]: 42.9 b | Km [3]: 72.0 ± 7.1 µM | kcat [3]: 3.9 ± 0.009 s⁻¹ | kcat/Km [3]: 54.2 a | Km [4]: 71.4 ± 11.6 µM | kcat [4]: 5 ± 0.02 s⁻¹ | kcat/Km [4]: 70.4 b

B2: EUGO (Rhodococcus jostii RHA1) (protein)
chain: MTRTLPPGVSDERFDAALQRFRDVVGDKWVLSTADELEAFRDPYPVGAAEANLPSAVVSPESTEQVQDIVRIANEYGIPLSPVSTGKNNGYGGAAPRLSGSVIVKTGERMNRILEVNEKYGYALLEPGVTYFDLYEYLQSHDSGLMLDCPDLGWGSVVGNTLDRGVGYTPYGDHFMWQTGLEVVLPQGEVMRTGMGALPGSDAWQLFPYGFGPFPDGMFTQSNLGIVTKMGIALMQRPPASQSFLITFDKEEDLEQIVDIMLPLRINMAPLQNVPVLRNIFMDAAAVSKRTEWFDGDGPMPAEAIERMKKDLDLGFWNFYGTLYGPPPLIEMYYGMIKEAFGKIPGARFFTHEERDDRGGHVLQDRHKINNGIPSLDELQLLDWVPNGGHIGFSPVSAPDGREAMKQFEMVRNRANEYNKDYAAQFIIGLREMHHVCLFIYDTAIPEAREEILQMTKVLVREAAEAGYGEYRTHNALMDDVMATFNWGDGALLKFHEKIKDALDPNGIIAPGKSGIWSQRFRGQNL
notes: as for B1
Km [5]: 185.1 ± 11.3 µM | kcat [5]: 0.04 ± 0.003 s⁻¹ | kcat/Km [5]: 0.2 b | Km [6]: 89.6 ± 11.3 µM | kcat [6]: 5.9 ± 0.3 s⁻¹ | kcat/Km [6]: 65.8 a | Km [7]: 73.2 ± 1.5 µM | kcat [7]: 4.1 ± 0.01 s⁻¹ | kcat/Km [7]: 56.0 a | Km [8]: 59.3 ± 0.7 µM | kcat [8]: 4.8 ± 0.002 s⁻¹ | kcat/Km [8]: 80.9 b
